Assay results reported in US11814447B2, “Peptide ligands for binding to EphA2” (BICYCLERD LIMITED, priority 2018, dated 2023).
Starred links: 1 amine or outer side, 2 acyl side, 3 side chain; linkers in the order of their positions; H or OH if unused. Positions of bridges follow the written chain, without caps; N, C: chain ends. Non-standard residues stand in square brackets, D forms with d. No end group written: not given here. 1Nal = N[C@@H](Cc1cccc2ccccc12)C(=O)O; TBMB = c1c(C[*:1])cc(C[*:3])cc1C[*:2]; Gly(cPent) = N[C@H](C(=O)O)C1CCCC1; hArg = N=C(N)NCCCC[C@H](N)C(=O)O; Tle = CC(C)(C)[C@H](N)C(=O)O; Aib = CC(C)(N)C(=O)O; βAla = NCCC(=O)O; Sar = CNCC(=O)O

What follows are binders tested against Human EphA2 (Ecto) (Human) (UniProt P29317) (assay: FP competition, tracer Compound 18).
Chain of Human EphA2 (Ecto) (Human) (P29317 24-537): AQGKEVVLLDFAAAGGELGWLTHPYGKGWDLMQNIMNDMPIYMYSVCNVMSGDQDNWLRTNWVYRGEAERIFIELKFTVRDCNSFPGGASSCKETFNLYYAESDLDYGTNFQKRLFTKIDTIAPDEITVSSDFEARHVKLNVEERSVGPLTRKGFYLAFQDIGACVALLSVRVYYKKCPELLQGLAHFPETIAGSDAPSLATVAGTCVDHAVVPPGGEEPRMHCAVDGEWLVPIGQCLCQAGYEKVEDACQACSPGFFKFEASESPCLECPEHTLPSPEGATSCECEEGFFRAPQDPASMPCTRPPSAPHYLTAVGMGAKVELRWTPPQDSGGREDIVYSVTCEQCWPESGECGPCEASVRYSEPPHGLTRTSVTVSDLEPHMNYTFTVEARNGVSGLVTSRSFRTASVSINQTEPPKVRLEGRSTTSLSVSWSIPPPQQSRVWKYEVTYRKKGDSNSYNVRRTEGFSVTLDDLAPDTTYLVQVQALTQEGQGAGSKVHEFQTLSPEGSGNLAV

[βAla][Sar][Sar][Sar][Sar][Sar][Sar][Sar][Sar][Sar][Sar]H[dD]VPCP[1Nal]G[Aib]FWCP[Tle]N[hArg]P[dD]C (linker 16-23-30 via TBMB) [Bicycle Compound 265] and [βAla][Sar][Sar][Sar][Sar][Sar][Sar][Sar][Sar][Sar][Sar]H[dD]VPCPWG[Aib]F[1Nal]CP[Tle]N[hArg]P[dD]C (linker 16-23-30 via TBMB) [Bicycle Compound 269] are within 1.5-fold of each other in Ki: 1.55 nM for the first, 1.11 nM for the second.

[βAla][Sar][Sar][Sar][Sar][Sar][Sar][Sar][Sar][Sar][Sar]H[dD]VPCPWG[Aib]FWCP[Tle]N[hArg]P[dD]C (linker 16-23-30 via TBMB) [Bicycle Compound 271] and [βAla][Sar][Sar][Sar][Sar][Sar][Sar][Sar][Sar][Sar][Sar]H[dD]VPCPWGP[hArg]WCP[Tle]N[hArg]P[dD]C (linker 16-23-30 via TBMB) [Bicycle Compound 272] are within 1.5-fold of each other in Ki: 3.66 nM for the first, 3.99 nM for the second.

Going from [βAla][Sar][Sar][Sar][Sar][Sar][Sar][Sar][Sar][Sar][Sar]H[dD][Gly(cPent)]PC[Aib]WG[Aib]FWCP[Tle]NR[Aib][dD]C (linker 16-23-30 via TBMB) [Bicycle Compound 275] to [βAla][Sar][Sar][Sar][Sar][Sar][Sar][Sar][Sar][Sar][Sar]H[dD][Gly(cPent)]PCP[1Nal]G[Aib]F[1Nal]CP[Tle]NR[Aib]GC (linker 16-23-30 via TBMB) [Bicycle Compound 278], the Ki falls from 15.9 nM to 0.46 nM (35-fold).

[βAla][Sar][Sar][Sar][Sar][Sar][Sar][Sar][Sar][Sar][Sar]H[dD][Gly(cPent)]TCP[1Nal]G[Aib]F[1Nal]CP[Tle]NR[Aib]GC (linker 16-23-30 via TBMB) [Bicycle Compound 279] and [βAla][Sar][Sar][Sar][Sar][Sar][Sar][Sar][Sar][Sar][Sar]H[dD][Gly(cPent)]TCP[1Nal]G[Aib]F[1Nal]CP[Tle]N[hArg]P[dD]C (linker 16-23-30 via TBMB) [Bicycle Compound 280] are within 1.5-fold of each other in Ki: 0.59 nM for the first, 0.64 nM for the second.

In the case of Ac-[Sar][Sar]H[dD]VTCP[1Nal]G[Aib]F[1Nal]CP[Tle]NR[Aib]GC (linker 7-14-21 via TBMB) [Bicycle Compound 285], the Ki is reported as 1.21 nM.

What follows are binders tested against T1, Human EphA2 (Ecto) (Human, UniProt P29317 24-537) (assay: FP competition, tracer Compound 66).
T1 construct: extracellular domain
T1 sequence (P29317 24-537): as above

[Sar][Sar]ACAWGPFWCPVNRPGC (linker 4-11-18 via TBMB) [Bicycle Compound 286] and [Sar][Sar]ACPWGPFWCPANRPGC (linker 4-11-18 via TBMB) [Bicycle Compound 292] are within 1.5-fold of each other in Ki: 886 nM for the first, 954 nM for the second.

First: [Sar][Sar]ACPWGPFWCPVARPGC (linker 4-11-18 via TBMB) [Bicycle Compound 101]
Second: [Sar][Sar]ACPWGPFWCPVNAPGC (linker 4-11-18 via TBMB) [Bicycle Compound 293]
The Ki of the first is 2.7-fold lower: 265 nM for the first, 711 nM for the second. The first binds more tightly here.

Going from [Sar][Sar]ACPW[dA]PFWCPVNRPGC (linker 4-11-18 via TBMB) [Bicycle Compound 296] to [Sar][Sar]ACPWG[dA]FWCPVNRPGC (linker 4-11-18 via TBMB) [Bicycle Compound 297], the Ki rises from 1000 nM to 1500 nM (1.5-fold). The first binds more tightly here.
